The results in this text go back to patent publication US20210238260A1.

The first test has as its target antithrombin III (AT-III), plasma purified human, in complex with unfractionated heparin (UFH) (human) (UniProt P01008). As to the kind of experiment: inhibition of FIXa by AT-III/UFH, pseudo-first-order, residual activity on Mesyl-D-CHG-Gly-Arg-AMC.
In turn, “FIXa-Y155F/K247N/N249S/R338E/R403E (from UniProt P00740 47-191; P00740 227-461) (enzyme)” came in with a kapp (second-order rate constant for inhibition) of 13000 M⁻¹ s⁻¹.

“FIXa-Y155F/K247N/N249S/R318Y/R338E/T343R/E410N (from UniProt P00740 47-191; P00740 227-461) (enzyme)” came in with a kapp (second-order rate constant for inhibition) of 220000 M⁻¹ s⁻¹.

With “FIXa-K247N/N249S/R318Y/R338E/T343R/R403E/E410N (from UniProt P00740 47-191; P00740 227-461) (enzyme)”, the kapp (second-order rate constant for inhibition) amounted to 9600 M⁻¹ s⁻¹.

For the substance “FIXa-Y155F/K228N/I251S/R318Y/R338E/R403E/E410N (from UniProt P00740 47-191; P00740 227-461) (enzyme)”, the kapp (second-order rate constant for inhibition) amounted to 1300 M⁻¹ s⁻¹.

On to “FIXa-Y155F/K247N/N249S/R338E/T343R/R403E/E410N (from UniProt P00740 47-191; P00740 227-461) (enzyme)”, for which the kapp (second-order rate constant for inhibition) was 89000 M⁻¹ s⁻¹.

On to “FIXa-Y155F/R318Y/R338E/T343R/E410N (from UniProt P00740 47-191; P00740 227-461) (enzyme)”, for which the kapp (second-order rate constant for inhibition) was 780000 M⁻¹ s⁻¹.

Substance “FIXa-Y155F/R338E/T343R/R403E/E410N (from UniProt P00740 47-191; P00740 227-461) (enzyme)” came in with a kapp (second-order rate constant for inhibition) of 280000 M⁻¹ s⁻¹.

Turning to “FIXa-Y155F/R338E/T343R/R403E (from UniProt P00740 47-191; P00740 227-461) (enzyme)”, the kapp (second-order rate constant for inhibition) amounted to 93000 M⁻¹ s⁻¹.

On to “FIXa-Y155F/I251S/R338E/T343R/R403E (from UniProt P00740 47-191; P00740 227-461) (enzyme)”, for which the kapp (second-order rate constant for inhibition) came to 160000 M⁻¹ s⁻¹.

As to “FIXa-Y155F/N260S/R318Y/R338E/T343R/R403E/E410N (from UniProt P00740 47-191; P00740 227-461) (enzyme)”, the kapp (second-order rate constant for inhibition) turned out to be 2600 M⁻¹ s⁻¹.

Take “FIXa-R318Y/T343R/R403E/E410N (from UniProt P00740 47-191; P00740 227-461) (enzyme)”: the kapp (second-order rate constant for inhibition) is 93000 M⁻¹ s⁻¹.

The substance “FIXa-Y155F/K247N/N249S/R318Y/R338E/T343R/R403E/E410N (from UniProt P00740 47-191; P00740 227-461) (enzyme)” registered a kapp (second-order rate constant for inhibition) of 8700 M⁻¹ s⁻¹.

For the substance “FIXa-R318Y/R338E/T343R/R403E/E410S (from UniProt P00740 47-191; P00740 227-461) (enzyme)”, the kapp (second-order rate constant for inhibition) came to 9900 M⁻¹ s⁻¹.

With “FIXa-Y155F/K247N/N249S/R318Y/R338E/T343R/R403E (from UniProt P00740 47-191; P00740 227-461) (enzyme)”, the kapp (second-order rate constant for inhibition) was 2300 M⁻¹ s⁻¹.

The substance “FIXa-Y155F/R318Y/T343R/R403E/E410N (from UniProt P00740 47-191; P00740 227-461) (enzyme)” had a kapp (second-order rate constant for inhibition) of 55000 M⁻¹ s⁻¹.

“FIXa-Y155F/R318Y/R338E/T343R/R403E (from UniProt P00740 47-191; P00740 227-461) (enzyme)”: the kapp (second-order rate constant for inhibition) stood at 2800 M⁻¹ s⁻¹.

On to “FIXa-N260S/R318Y/R338E/T343R/R403E/E410N (from UniProt P00740 47-191; P00740 227-461) (enzyme)”, for which the kapp (second-order rate constant for inhibition) worked out at 2600 M⁻¹ s⁻¹.

“FIXa-K247N/N249S/R338E/T343R/R403E/E410N (from UniProt P00740 47-191; P00740 227-461) (enzyme)”: the kapp (second-order rate constant for inhibition) was 86000 M⁻¹ s⁻¹.

“FIXa-K247N/N249S/R318Y/R338E/T343R/R403E (from UniProt P00740 47-191; P00740 227-461) (enzyme)”: the kapp (second-order rate constant for inhibition) worked out at 1700 M⁻¹ s⁻¹.

As for “FIXa-K228N/K247N/N249S/R318Y/R338E/T343R/R403E/E410N (from UniProt P00740 47-191; P00740 227-461) (enzyme)”, the kapp (second-order rate constant for inhibition) was found to be 5300 M⁻¹ s⁻¹.

With “FIXa-Y155F/K247N/N249S/R318Y/E410N (from UniProt P00740 47-191; P00740 227-461) (enzyme)”, the kapp (second-order rate constant for inhibition) came to 130000 M⁻¹ s⁻¹.

The substance “FIXa-K228N/I251S/R318Y/R338E/R403E/E410N (from UniProt P00740 47-191; P00740 227-461) (enzyme)” displayed a kapp (second-order rate constant for inhibition) of 900 M⁻¹ s⁻¹.

In the case of “FIXa-Y155F/N260S/R338E/T343R/R403E (from UniProt P00740 47-191; P00740 227-461) (enzyme)”, the kapp (second-order rate constant for inhibition) worked out at 40000 M⁻¹ s⁻¹.

The substance “FIXa-Y155F/K247N/N249S/R318Y/R338E (from UniProt P00740 47-191; P00740 227-461) (enzyme)” displayed a kapp (second-order rate constant for inhibition) of 27000 M⁻¹ s⁻¹.

For the substance “FIXa-Y155F/K247N/N249S/R318Y/R403E (from UniProt P00740 47-191; P00740 227-461) (enzyme)”, the kapp (second-order rate constant for inhibition) was determined as 2100 M⁻¹ s⁻¹.

Regarding “FIXa-Y155F/K247N/N249S/R338E/T343R (from UniProt P00740 47-191; P00740 227-461) (enzyme)”, the kapp (second-order rate constant for inhibition) is 1.2e+07 M⁻¹ s⁻¹.

As to “FIXa-R338E/T343R/R403E (from UniProt P00740 47-191; P00740 227-461) (enzyme)”, the kapp (second-order rate constant for inhibition) is 190000 M⁻¹ s⁻¹.

The substance “FIXa-Y155F/R338E/T343R/R403E/E410S (from UniProt P00740 47-191; P00740 227-461) (enzyme)” registered a kapp (second-order rate constant for inhibition) of 220000 M⁻¹ s⁻¹.

On to “FIXa-Y155F/K247N/N249S/T343R/R403E (from UniProt P00740 47-191; P00740 227-461) (enzyme)”, for which the kapp (second-order rate constant for inhibition) worked out at 140000 M⁻¹ s⁻¹.

The substance “FIXa-R318Y/R338E/T343R/R403E (from UniProt P00740 47-191; P00740 227-461) (enzyme)” came in with a kapp (second-order rate constant for inhibition) of 5800 M⁻¹ s⁻¹.

Substance “FIXa-Y155F/K228N/K247N/N249S/R318Y/R338E/T343R/R403E/E410N (from UniProt P00740 47-191; P00740 227-461) (enzyme)” came in with a kapp (second-order rate constant for inhibition) of 2200 M⁻¹ s⁻¹.

The target of another test is antithrombin III (plasma purified human AT-III), in complex with unfractionated heparin (human) (UniProt P01008). As to the kind of experiment: AT-III/UFH inhibition of FIXa; residual activity on Pefafluor FIXa substrate, varied incubation time.
Turning to “FIXa D104N/K106S/Y155F/R318Y/R338E/R403E/E410N (from UniProt P00740 47-191; P00740 227-461) (enzyme)”, the kapp (apparent second-order rate constant for inhibition) stood at 2900 M⁻¹ s⁻¹.

In the case of “FIXa Y155F/K247N/N249S/R318Y/R338E/R403E/E410N (from UniProt P00740 47-191; P00740 227-461) (enzyme)”, the kapp (apparent second-order rate constant for inhibition) was 1600 M⁻¹ s⁻¹.

As to “FIXa K247N/N249S/R318Y/R338E/E410N (from UniProt P00740 47-191; P00740 227-461) (enzyme)”, the kapp (apparent second-order rate constant for inhibition) is 860000 M⁻¹ s⁻¹.

Turning to “FIXa Y155F/R318Y/R338E/E410N (from UniProt P00740 47-191; P00740 227-461) (enzyme)”, the kapp (apparent second-order rate constant for inhibition) worked out at 450000 M⁻¹ s⁻¹.

On to “FIXa Y155F/R318Y/R403E/E410N (from UniProt P00740 47-191; P00740 227-461) (enzyme)”, for which the kapp (apparent second-order rate constant for inhibition) worked out at 8100 M⁻¹ s⁻¹.

As for “FIXa Y155F/K228N/R318Y/R338E/R403E/E410N (from UniProt P00740 47-191; P00740 227-461) (enzyme)”, the kapp (apparent second-order rate constant for inhibition) is 4600 M⁻¹ s⁻¹.

A further test concerns the target plasma purified human AT-III (antithrombin III) in complex with unfractionated heparin (human) (UniProt P01008). As to the kind of experiment: residual FIXa activity on Mesyl-D-CHG-Gly-Arg-AMC after timed incubation with AT-III/UFH (0-500 nM AT-III, 1 uM UFH); kapp from K0.5.
Take “FIXa-Y155F/K247N/N249S/R338E/R403E/E410N (from UniProt P00740 47-191; P00740 227-461) (enzyme)”: the kapp (apparent second-order rate constant for inhibition) was determined as 42000 M⁻¹ s⁻¹.

Take “FIXa-K247N/N249S/R318Y/R403E/E410N (from UniProt P00740 47-191; P00740 227-461) (enzyme)”: the kapp (apparent second-order rate constant for inhibition) came to 2700 M⁻¹ s⁻¹.

As to “FIXa-R318Y/R338E/E410S (from UniProt P00740 47-191; P00740 227-461) (enzyme)”, the kapp (apparent second-order rate constant for inhibition) amounted to 720000 M⁻¹ s⁻¹.

In the case of “FIXa-K228N/K247N/N249S/R318Y/R338E/R403E/E410N (from UniProt P00740 47-191; P00740 227-461) (enzyme)”, the kapp (apparent second-order rate constant for inhibition) came to 1100 M⁻¹ s⁻¹.

“FIXa-R318Y/R338E/N346Y/R403E/E410N (from UniProt P00740 47-191; P00740 227-461) (enzyme)”: the kapp (apparent second-order rate constant for inhibition) turned out to be 2800 M⁻¹ s⁻¹.

With “FIXa-R318Y/R338E/Y345A/R403E/E410N (from UniProt P00740 47-191; P00740 227-461) (enzyme)”, the kapp (apparent second-order rate constant for inhibition) stood at 7900 M⁻¹ s⁻¹.

Take “FIXa-K247N/N249S/N260S/R318Y/R338E/R403E/E410N (from UniProt P00740 47-191; P00740 227-461) (enzyme)”: the kapp (apparent second-order rate constant for inhibition) was found to be 1300 M⁻¹ s⁻¹.

As for “FIXa-N260S/R318Y/R338E/R403E/E410N (from UniProt P00740 47-191; P00740 227-461) (enzyme)”, the kapp (apparent second-order rate constant for inhibition) stood at 4400 M⁻¹ s⁻¹.

With “FIXa-T343R/N346D (from UniProt P00740 47-191; P00740 227-461) (enzyme)”, the kapp (apparent second-order rate constant for inhibition) was determined as 1.3e+06 M⁻¹ s⁻¹.

As to “FIXa-R318Y/R338E/R403E/T412A (from UniProt P00740 47-191; P00740 227-461) (enzyme)”, the kapp (apparent second-order rate constant for inhibition) is 1600 M⁻¹ s⁻¹.

As to “FIXa-Y155F/K247N/N249S/R318Y/R403E/E410N (from UniProt P00740 47-191; P00740 227-461) (enzyme)”, the kapp (apparent second-order rate constant for inhibition) was 7300 M⁻¹ s⁻¹.

Regarding “FIXa-D104N/K106S/N260S/R318Y/R338E/R403E/E410N (from UniProt P00740 47-191; P00740 227-461) (enzyme)”, the kapp (apparent second-order rate constant for inhibition) is 2100 M⁻¹ s⁻¹.

With “FIXa-D104N/K106S/K247N/N249S/N260S (from UniProt P00740 47-191; P00740 227-461) (enzyme)”, the kapp (apparent second-order rate constant for inhibition) turned out to be 1.7e+06 M⁻¹ s⁻¹.
